Assay results taken from patent US7037662 (dated 2006).

T1: LERK 7-FLAG (monovalent LERK7/AL-1 with N-terminal FLAG peptide) (human, UniProt P52803 21-203, limits assumed)
T1 construct: domain: mature protein stopped before the hydrophobic tail; also called soluble LERK7
T1 sequence (looked up): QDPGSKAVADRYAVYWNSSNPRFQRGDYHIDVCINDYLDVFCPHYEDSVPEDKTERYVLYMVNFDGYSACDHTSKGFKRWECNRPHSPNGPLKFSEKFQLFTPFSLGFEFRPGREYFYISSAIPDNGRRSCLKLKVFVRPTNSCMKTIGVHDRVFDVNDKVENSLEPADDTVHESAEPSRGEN

B1: HEK I-III (FLAG-tagged HEK subdomain construct, exons I-III) (receptor, not shown: small tags and cut ends)
chain: ELIPQPSNEVNLLDSKTIQGELGWISYPSHGWEEISGVDEHYTPIRTYQVCNVMDHSQNNWLRTNWVPRNSAQKIYVELKFTLRDCNSIPLVLGTCKETFNLYYMESDDDHGVKFREHQFTKIDTIAADESFTQMDLGDRILKLNTEIREVGPVNKKGFYLAFQDVGACVALVSVRVYFKKCPFTVKNLAMFPDTVPMDSQSLVEVRGSCVNNSKEEDPPRMYCSTEGEWLVPIGKCSCNAGYEERGFMCQ
notes: Native signal peptide (residues 1-20) replaced by IL3 signal and FLAG
B2: LERK 5-Fc fusion protein (Fc fusion, UniProt P52799 28-229, looked up)
chain: IVLEPIYWNSSNSKFLPGQGLVLYPQIGDKLDIICPKVDSKTVGQYEYYKVYMVDKDQADRCTIKKENTPLLNCAKPDQDIKFTIKFQEFSPNLWGLEFQKNKDYYIISTSNGSLEGLDNQEGGVCQTRAMKILMKVGQDASSAGSTRNKDPTRRPELEAGTNGRSSTTSPFVKPNPGSSTDGNSAGHSGNNILGSEVALFA
notes: not shown: human Fc domain
B3: HEK I-VII (N-terminally FLAG-tagged HEK exodomain, exons I-VII) (receptor, human, UniProt P29320 21-541, looked up, not shown: small tags and cut ends)
chain: ELIPQPSNEVNLLDSKTIQGELGWISYPSHGWEEISGVDEHYTPIRTYQVCNVMDHSQNNWLRTNWVPRNSAQKIYVELKFTLRDCNSIPLVLGTCKETFNLYYMESDDDHGVKFREHQFTKIDTIAADESFTQMDLGDRILKLNTEIREVGPVNKKGFYLAFQDVGACVALVSVRVYFKKCPFTVKNLAMFPDTVPMDSQSLVEVRGSCVNNSKEEDPPRMYCSTEGEWLVPIGKCSCNAGYEERGFMCQACRPGFYKALDGNMKCAKCPPHSSTQEDGSMNCRCENNYFRADKDPPSMACTRPPSSPRNVISNINETSVILDWSWPLDTGGRKDVTFNIICKKCGWNIKQCEPCSPNVRFLPRQFGLTNTTVTVTDLLAHTNYTFEIDAVNGVSELSSPPRQFAAVSITTNQAAPSPVLTIKKDRTSRNSISLSWQEPEHPNGIILDYEVKYYEKQEQETSYTILRARGTNVTISSLKPDTIYVFQIRARTAAGYGTNSRKFEFETSPDSFSISGESSQ
notes: extracellular domain; CHO cell product; in the zebrafish experiments expressed from injected mRNA; also called HEK-FLAG
B4: soluble HEK (sHEK), complete extracellular domain (exodomain) of HEK encoded by exons I-VII (receptor, human, UniProt P29320 21-541, looked up)
chain: B3 chain
notes: extracellular domain; Untagged soluble exodomain from CHO cells; also called HEK exodomain
B5: LERK 3-FLAG (monovalent FLAG-tagged LERK 3) (ligand, UniProt P52797 23-214, looked up, not shown: small tags and cut ends)
chain: QGPGGALGNRHAVYWNSSNQHLRREGYTVQVNVNDYLDIYCPHYNSSGVGPGAGPGPGGGAEQYVLYMVSRNGYRTCNASQGFKRWECNRPHAPHSPIKFSEKFQRYSAFSLGYEFHAGHEYYYISTPTHNLHWKCLRMKVFVCCASTSHSGEKPVPTLPQFTMGPNVKINVLEDFEGENPQVPKLEKSISG
notes: CHO cell-derived
B6: LERK 3-Fc fusion protein (Fc fusion, UniProt P52797 23-214, looked up)
chain: B5 chain
notes: not shown: human Fc domain
B7: LERK7-Fc fusion protein (Fc fusion, UniProt P52803 21-203, looked up)
chain: T1 sequence (looked up)
notes: not shown: Fc and hinge regions of human IgG1
B8: LERK 4-Fc fusion protein (Fc fusion, UniProt P52798 26-170, looked up)
chain: LRHVVYWNSSNPRLLRGDAVVELGLNDYLDIVCPHYEGPGPPEGPETFALYMVDWPGYESCQAEGPRAYKRWVCSLPFGHVQFSEKIQRFTPFSLGFEFLPGETYYYISVPTPESSGQCLRLQVSVCCKERKSESAHPVGSPGES
notes: not shown: human Fc domain

Tests used:
[1] = target: T1, LERK 7-FLAG (monovalent LERK7/AL-1 with …); assay: BIAcore in-solution competition; 40 nM LERK 7 with increasing competitor injected onto an sHEK-derivatised sensor chip; residual response as % of the response without competitor
Method: (§1) The binding of various HEK constructs and derived peptides was analysed on the BIAcore optical biosensor (Pharmacia Biosensor, Sweden) using purified soluble HEK (corresponding to the entire extracellular domain) or LERK 7-FLAG derivatised CM 5 sensor chips and the interaction kinetics determined. The immobilization of HEK onto the sensor chip surface was performed essentially as described by Lackmann et al, 1996. LERK7-FLAG (47 μg/ml in 20 mM sodium acetate, pH 4.5) was coupled at 5 μl/min onto N-hydroxysuccinimide (NHS, 0.05 M)/N-hydroxysuccinimide-N-ethyl-N'-([…]) carbodiimide(EDC, 0.2 M) activated sensor chips (45 μl, 2 μl/min) to yield an increase in the response level of 2500–3000 response units (RU).
Figure 2F: FIG. 2F: Samples containing 40 nM LERK 7 and 1 nM—10 μM synthetic peptide encoded by exons I and II of the HEK gene (Δ), 10 nM—1 μM HEK I–VII (o), 10 nM—1 μM HEK IV–VII (x) or 1 nM—1 μM HEK I-III (□) were injected onto an sHEK-derivatised sensor chip. The residual responses are illustrated as percentage of the total response in the absence of competitor.

[2] = target: B4; assay: BIAcore, apparent KD from equilibrium responses, LERK-Fc over immobilised HEK
Method: (§2) Figure 2C: FIG. 2C: Expression of soluble HEK (sHEK) polypeptides encoded by the constructs shown in B. sHEK in lane 1 corresponds to the complete extracellular domain (exodomain) of HEK encoded by exons I–VII. […] Samples (50 μl) of purified fusion proteins comprising the human Fc domain and either LERK 1, 2, 3, 4, 5 and 7 at 10 μg/ml in BIAcore running buffer were applied onto an sHEK-derivatised sensor chip. The responses were recorded 20 s after completion of the injection phase and are shown as relative BIAcore response units, (RU) compared to the response of an equal amount of human Fc domain used as a control in this experiment.
(§3) Receptor-ligand interactions within the Eph family RTKs has mainly been studied by modified indirect Scatchard analysis of human IgG-Fc fusion proteins of ligands or receptors binding to receptor or ligand transfected cells, respectively (Beckmann et al., 1994, supra; Davis et al., 1994, supra; Ceretti et al., 1995, supra: Bennett et at., 1995). To evaluate if BIAcore analysis also detected the interaction of various LERKs with HEK, we compared the binding of bivalent, Fc-fusion proteins of LERK (LERKS 1 to 5) and LERK 7 (FIG. 2C) to sensor chip-immobilised HEK exodomain. Each ligand sample was injected at concentrations between 0.1–10 µg/ml (approximately 0.8 to 80 nM) across the sensor chip. A sample containing 10 µg/ml of the recombinant Human Fc fragment was used as a control.

[3] = target: T2, recombinant Human Fc fragment (control) (human, UniProt P01857-1 99-330 = IgG part, limits assumed); assay: BIAcore; human Fc domain at 10 µg/ml (50 µl) on an sHEK-derivatised sensor chip; response 20 s after the end of the injection
T2 construct: domain: Fc fragment; also called human Fc domain; control recombinant Fc construct
Method: as §2
as §3, with “A sample containing 10 µg/ml of the recombinant Human Fc fragment was used as a control.” left out

[4] = target: B4; assay: BIAcore, LERK-FLAG over HEK sensor chip; reference LERK 7-FLAG
[5] = target: B4; assay: BIAcore, apparent KD from kinetic rate constants, immobilised sHEK
Method: as §1
(§4) Figures 5A, 5B: FIG. 5: Binding curves for the interaction of monovalent LERK-FLAG fusion proteins with immobilised sHEK. Homogeneous preparations of CHO cell-derived LERK 3-FLAG (panel A) or LERK 7-FLAG (panel B) at increasing concentrations (8.22, 16.44, 32.88, 65.75, 131.5, 263, 526 nM) of LERK3-FLAG, and (1.25, 2.5, 5, 10, 20, 40, 80 nM) LERK7-FLAG were injected across an sHEK-derivatised sensor surface. BIAcore data for the association and dissociation phases were used to estimate corresponding kinetic rate constants on the basis of a one-to-one interaction model. (panel C). […]

[6] = target: B4; assay: BIAcore, LERK 3-FLAG over immobilised sHEK, single component model
Method: as §1, §4

Binder: B1
- IC50 (read off the curve) [1]: ~0.07 µM

Binder: B2
- Kd [2]: 24 nM

Binder: B3
- IC50 (read off the curve) [1]: ~0.09 µM

Binder: B4
- binding result [3]: no binding (tested: 10 µg/ml)

Binder: B5
- fold higher concentration needed for a response comparable to LERK7 [4]: ~30 fold
- Kd [5]: 590 nM
- koff [6]: 0.26 s⁻¹
- kon [6]: 370000 M⁻¹ s⁻¹

Binder: B6
- Kd [2]: 5 nM

Binder: B7
- Kd [2]: 3 nM

Binder: B8
- Kd [2]: 6 nM
